How the values were obtained:
5HT3a = molecular target: T1, 5HT3a (Homo sapiens, UniProt P46098); test: Ion channel panel (IonWorks Barracuda): 5HT3a; assay type: cell-based
T1 construct: host or cells: HEK293 or CHO
T1 sequence (P46098 whole entry, looked up): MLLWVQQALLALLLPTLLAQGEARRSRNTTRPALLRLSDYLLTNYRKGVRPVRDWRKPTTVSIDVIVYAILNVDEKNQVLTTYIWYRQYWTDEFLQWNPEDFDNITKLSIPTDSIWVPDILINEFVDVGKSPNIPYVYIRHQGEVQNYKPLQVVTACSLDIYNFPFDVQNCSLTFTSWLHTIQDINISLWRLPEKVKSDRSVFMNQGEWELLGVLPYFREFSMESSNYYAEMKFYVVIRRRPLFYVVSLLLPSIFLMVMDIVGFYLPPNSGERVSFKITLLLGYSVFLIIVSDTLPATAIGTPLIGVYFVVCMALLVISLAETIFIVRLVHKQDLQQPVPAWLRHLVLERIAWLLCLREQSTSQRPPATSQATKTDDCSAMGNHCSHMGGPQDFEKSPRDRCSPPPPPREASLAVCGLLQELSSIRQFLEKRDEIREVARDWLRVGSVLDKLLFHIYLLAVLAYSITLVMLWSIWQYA
Procedure, shortened: (§1)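 Peptides were tested in duplicate at final 20 μM and 200 nM, with concentration set by amino acid analysis, in HEPES-buffered saline. They were applied for at least 5 min to HEK293 or CHO cells transfected with each channel. Currents were expressed as % inhibition, 1-(Ipeptide/Icontrol)×100, or % activation, Ipeptide/Icontrol×100, against a channel-matched reference compound.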

α3β4 = molecular target: T2, α3β4 (Homo sapiens, UniProt P30926+P32297); test: Ion channel panel (IonWorks Barracuda): α3β4; assay type: cell-based; settings: 100% = no change, <100% = inhibition
T2 construct: host or cells: HEK293 or CHO
Procedure, shortened: as §1

α4β2 = molecular target: T3, α4β2 (Homo sapiens, UniProt P17787+P43681); test: Ion channel panel (IonWorks Barracuda): α4β2; assay type: cell-based; settings: 100% = no change, <100% = inhibition
T3 construct: host or cells: HEK293 or CHO
Procedure, shortened: as §1

Cav2.1 = molecular target: T4, Cav2.1 (Homo sapiens, UniProt O00555); test: cell-based; settings: 100% = no change, <100% = inhibition
T4 construct: host or cells: HEK293 or CHO
Procedure, shortened: as §1

Cav2.2 = molecular target: T5, Cav2.2 (Homo sapiens, UniProt Q00975); test: cell-based; settings: 100% = no change, <100% = inhibition
T5 construct: host or cells: HEK293 or CHO
Procedure, shortened: as §1

Kv2.1 = molecular target: T6, Kv2.1 (Homo sapiens, UniProt Q14721); test: cell-based; settings: 100% = no change, <100% = inhibition
T6 construct: host or cells: HEK293 or CHO
Procedure, shortened: as §1

GABA = test: Ion channel panel (IonWorks Barracuda): GABA; assay type: cell-based; settings: 100% = no change, <100% = inhibition
Procedure, shortened: as §1

Nav1.5 = Nav1.5 (Homo sapiens, UniProt Q14524); test: in vitro; settings: 100% = no change; for Activity of Nav1.5 with peptide, expressed as a percentage of the reference compound: peptide at 0.2 μM; for Activity of Nav1.5 with peptide (percentage of the reference compound): peptide at 20 μM
Procedure, shortened: as §1

hERG = hERG (Homo sapiens, UniProt Q12809); test: in vitro; settings: 100% = no change, <100% = inhibition
Procedure, shortened: as §1

Kir2.1 = molecular target: T7, Kir2.1 (Homo sapiens, UniProt P63252); test: Ion channel panel (IonWorks Barracuda): Kir2.1; assay type: cell-based; settings: 100% = no change, <100% = inhibition
T7 construct: host or cells: HEK293 or CHO
Procedure, shortened: as §1

Kv1.1 = molecular target: T8, Kv1.1 (Homo sapiens, UniProt Q09470); test: cell-based; assay type: cell-based; settings: 100% = no change, <100% = inhibition
T8 construct: host or cells: HEK293 or CHO
Procedure, shortened: as §1

Kv1.2 = molecular target: T9, Kv1.2 (Homo sapiens, UniProt P16389); test: cell-based; assay type: cell-based; settings: 100% = no change, <100% = inhibition
T9 construct: host or cells: HEK293 or CHO
Procedure, shortened: as §1

Kv1.3 = molecular target: T10, Kv1.3 (Homo sapiens, UniProt P22001); test: cell-based; assay type: cell-based; settings: 100% = no change, <100% = inhibition
T10 construct: host or cells: HEK293 or CHO
Procedure, shortened: as §1

Nav1.7 = molecular target: T11, Nav1.7 (Homo sapiens, UniProt Q15858); test: cell-based; assay type: cell-based; settings: 100% = no change; for Activity of Nav1.7 with peptide, expressed as a percentage of the reference compound: peptide at 0.2 μM; for Activity of Nav1.7 with peptide (percentage of the reference compound): peptide at 20 μM
T11 construct: host or cells: HEK293 or CHO

NR2A = molecular target: T12, NR2A (Homo sapiens, UniProt Q12879); test: Ion channel panel (IonWorks Barracuda): NR2A; assay type: cell-based; settings: 100% = no change, <100% = inhibition
T12 construct: host or cells: HEK293 or CHO
Procedure, shortened: as §1

NR2B = molecular target: T13, NR2B (Homo sapiens, UniProt Q13224); test: Ion channel panel (IonWorks Barracuda): NR2B; assay type: cell-based; settings: 100% = no change, <100% = inhibition
T13 construct: host or cells: HEK293 or CHO
Procedure, shortened: as §1

TRPA1 = molecular target: T14, TRPA1 (Homo sapiens, UniProt O75762); test: Ion channel panel (IonWorks Barracuda): TRPA1; assay type: cell-based; settings: 100% = no change, <100% = inhibition
T14 construct: host or cells: HEK293 or CHO
Procedure, shortened: as §1

TRPV1 = molecular target: T15, TRPV1 (Homo sapiens, UniProt Q8NER1); test: Ion channel panel (IonWorks Barracuda): TRPV1; assay type: cell-based; settings: 100% = no change, <100% = inhibition
T15 construct: host or cells: HEK293 or CHO
Procedure, shortened: as §1

[1] = first of two Nav1.5 columns (probably TP1)
[2] = second of two Nav1.5 columns (probably TP2)
[3] = first of two Nav1.7 columns (probably TP1)
[4] = second of two Nav1.7 columns (probably TP2)

T11 sequence (Q15858 whole entry): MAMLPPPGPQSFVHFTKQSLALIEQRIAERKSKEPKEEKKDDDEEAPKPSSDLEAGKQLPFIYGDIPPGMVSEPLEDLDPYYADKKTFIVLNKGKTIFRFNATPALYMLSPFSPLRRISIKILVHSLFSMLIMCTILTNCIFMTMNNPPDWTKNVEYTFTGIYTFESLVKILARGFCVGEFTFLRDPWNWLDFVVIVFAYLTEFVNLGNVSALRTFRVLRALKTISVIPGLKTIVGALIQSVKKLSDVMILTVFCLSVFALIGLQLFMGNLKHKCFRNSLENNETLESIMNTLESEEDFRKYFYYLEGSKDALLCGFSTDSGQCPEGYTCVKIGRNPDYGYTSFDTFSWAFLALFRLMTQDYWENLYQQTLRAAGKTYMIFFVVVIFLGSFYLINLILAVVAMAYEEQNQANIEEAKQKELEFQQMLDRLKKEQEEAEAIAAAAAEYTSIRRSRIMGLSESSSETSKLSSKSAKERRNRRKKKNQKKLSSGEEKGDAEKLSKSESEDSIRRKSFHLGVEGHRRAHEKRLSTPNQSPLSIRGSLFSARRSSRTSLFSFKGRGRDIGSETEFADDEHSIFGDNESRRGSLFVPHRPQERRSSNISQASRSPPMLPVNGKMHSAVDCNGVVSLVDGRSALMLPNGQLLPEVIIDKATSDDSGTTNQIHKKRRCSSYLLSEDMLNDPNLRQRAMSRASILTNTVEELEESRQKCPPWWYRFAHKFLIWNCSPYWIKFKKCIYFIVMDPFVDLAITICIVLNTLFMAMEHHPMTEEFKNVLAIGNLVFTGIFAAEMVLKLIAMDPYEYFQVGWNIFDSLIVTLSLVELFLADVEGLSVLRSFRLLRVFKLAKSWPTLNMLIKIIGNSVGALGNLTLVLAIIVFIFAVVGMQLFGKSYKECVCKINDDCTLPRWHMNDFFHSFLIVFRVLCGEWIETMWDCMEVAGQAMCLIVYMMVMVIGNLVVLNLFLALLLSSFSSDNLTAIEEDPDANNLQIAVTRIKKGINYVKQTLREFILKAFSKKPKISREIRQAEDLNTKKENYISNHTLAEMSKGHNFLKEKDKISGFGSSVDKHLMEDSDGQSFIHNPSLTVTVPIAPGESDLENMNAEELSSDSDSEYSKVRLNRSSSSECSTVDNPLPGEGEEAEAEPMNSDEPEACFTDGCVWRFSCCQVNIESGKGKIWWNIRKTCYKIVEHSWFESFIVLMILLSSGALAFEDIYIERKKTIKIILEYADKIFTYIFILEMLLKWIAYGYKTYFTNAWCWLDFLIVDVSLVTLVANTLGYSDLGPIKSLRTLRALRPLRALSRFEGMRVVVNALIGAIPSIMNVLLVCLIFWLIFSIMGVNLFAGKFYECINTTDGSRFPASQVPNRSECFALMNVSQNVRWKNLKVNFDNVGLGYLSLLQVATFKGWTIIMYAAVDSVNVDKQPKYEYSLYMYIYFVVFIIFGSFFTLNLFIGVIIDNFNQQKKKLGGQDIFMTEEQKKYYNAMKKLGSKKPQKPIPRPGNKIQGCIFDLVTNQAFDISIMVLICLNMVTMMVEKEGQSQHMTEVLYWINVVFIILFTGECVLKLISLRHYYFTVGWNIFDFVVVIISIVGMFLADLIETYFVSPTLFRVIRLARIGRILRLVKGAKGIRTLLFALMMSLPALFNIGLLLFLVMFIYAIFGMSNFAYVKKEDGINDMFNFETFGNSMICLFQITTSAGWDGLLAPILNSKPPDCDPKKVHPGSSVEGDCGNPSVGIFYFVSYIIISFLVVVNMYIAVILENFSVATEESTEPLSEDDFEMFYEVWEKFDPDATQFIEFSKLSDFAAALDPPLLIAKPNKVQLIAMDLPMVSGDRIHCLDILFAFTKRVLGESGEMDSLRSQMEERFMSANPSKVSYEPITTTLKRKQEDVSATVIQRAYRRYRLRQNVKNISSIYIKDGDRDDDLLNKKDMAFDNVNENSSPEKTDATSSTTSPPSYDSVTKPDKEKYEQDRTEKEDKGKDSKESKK
Nav1.5, sequence (Q14524 whole entry): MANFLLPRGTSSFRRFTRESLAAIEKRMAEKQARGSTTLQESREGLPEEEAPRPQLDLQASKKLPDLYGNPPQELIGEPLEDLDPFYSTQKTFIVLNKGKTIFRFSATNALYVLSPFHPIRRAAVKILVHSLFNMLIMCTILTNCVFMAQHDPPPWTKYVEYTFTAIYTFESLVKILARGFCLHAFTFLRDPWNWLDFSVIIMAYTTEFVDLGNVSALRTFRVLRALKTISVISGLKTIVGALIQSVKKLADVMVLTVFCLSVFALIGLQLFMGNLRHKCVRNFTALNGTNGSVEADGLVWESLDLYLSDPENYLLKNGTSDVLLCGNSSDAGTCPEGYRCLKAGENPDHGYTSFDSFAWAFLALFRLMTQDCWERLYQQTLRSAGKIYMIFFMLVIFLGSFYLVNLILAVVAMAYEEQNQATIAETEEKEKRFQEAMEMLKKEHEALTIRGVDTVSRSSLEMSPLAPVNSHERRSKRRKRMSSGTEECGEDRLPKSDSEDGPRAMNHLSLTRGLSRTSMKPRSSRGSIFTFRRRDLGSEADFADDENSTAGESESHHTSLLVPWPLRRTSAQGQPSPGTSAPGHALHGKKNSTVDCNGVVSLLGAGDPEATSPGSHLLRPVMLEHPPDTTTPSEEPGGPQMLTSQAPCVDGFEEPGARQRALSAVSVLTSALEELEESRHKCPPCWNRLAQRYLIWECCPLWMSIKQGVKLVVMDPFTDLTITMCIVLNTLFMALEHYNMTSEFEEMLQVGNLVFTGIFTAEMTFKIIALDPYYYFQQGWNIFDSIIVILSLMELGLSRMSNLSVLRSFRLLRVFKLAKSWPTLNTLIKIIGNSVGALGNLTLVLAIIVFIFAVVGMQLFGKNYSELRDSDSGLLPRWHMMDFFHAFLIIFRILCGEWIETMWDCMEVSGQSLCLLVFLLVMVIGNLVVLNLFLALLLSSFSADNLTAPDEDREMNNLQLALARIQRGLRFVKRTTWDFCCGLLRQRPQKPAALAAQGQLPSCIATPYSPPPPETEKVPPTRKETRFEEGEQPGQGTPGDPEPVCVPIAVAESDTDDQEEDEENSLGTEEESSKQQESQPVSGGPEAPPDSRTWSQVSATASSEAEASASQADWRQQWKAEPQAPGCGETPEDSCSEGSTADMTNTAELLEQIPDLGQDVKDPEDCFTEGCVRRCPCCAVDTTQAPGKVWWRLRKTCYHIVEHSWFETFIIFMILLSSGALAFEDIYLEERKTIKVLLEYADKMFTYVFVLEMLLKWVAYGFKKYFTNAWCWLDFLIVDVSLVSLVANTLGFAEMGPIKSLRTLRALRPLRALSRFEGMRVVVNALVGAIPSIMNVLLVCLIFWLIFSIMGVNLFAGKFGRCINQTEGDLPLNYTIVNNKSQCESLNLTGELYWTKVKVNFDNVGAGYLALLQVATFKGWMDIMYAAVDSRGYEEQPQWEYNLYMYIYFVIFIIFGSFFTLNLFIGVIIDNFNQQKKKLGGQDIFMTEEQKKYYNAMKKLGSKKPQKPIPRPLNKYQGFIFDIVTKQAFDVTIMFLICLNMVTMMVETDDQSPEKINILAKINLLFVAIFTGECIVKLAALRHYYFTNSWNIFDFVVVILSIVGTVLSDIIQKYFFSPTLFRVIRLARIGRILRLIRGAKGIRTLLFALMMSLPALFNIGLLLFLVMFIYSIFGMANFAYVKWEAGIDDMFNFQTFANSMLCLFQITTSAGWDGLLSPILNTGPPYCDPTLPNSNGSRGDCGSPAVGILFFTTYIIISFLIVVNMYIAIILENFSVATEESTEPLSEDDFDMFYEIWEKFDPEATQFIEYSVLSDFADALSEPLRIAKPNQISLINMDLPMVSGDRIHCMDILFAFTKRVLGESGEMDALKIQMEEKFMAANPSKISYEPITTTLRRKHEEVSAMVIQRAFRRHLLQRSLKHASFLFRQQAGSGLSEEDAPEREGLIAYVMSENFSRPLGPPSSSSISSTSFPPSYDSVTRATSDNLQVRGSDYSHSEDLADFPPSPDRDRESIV
T7 sequence (P63252 whole entry): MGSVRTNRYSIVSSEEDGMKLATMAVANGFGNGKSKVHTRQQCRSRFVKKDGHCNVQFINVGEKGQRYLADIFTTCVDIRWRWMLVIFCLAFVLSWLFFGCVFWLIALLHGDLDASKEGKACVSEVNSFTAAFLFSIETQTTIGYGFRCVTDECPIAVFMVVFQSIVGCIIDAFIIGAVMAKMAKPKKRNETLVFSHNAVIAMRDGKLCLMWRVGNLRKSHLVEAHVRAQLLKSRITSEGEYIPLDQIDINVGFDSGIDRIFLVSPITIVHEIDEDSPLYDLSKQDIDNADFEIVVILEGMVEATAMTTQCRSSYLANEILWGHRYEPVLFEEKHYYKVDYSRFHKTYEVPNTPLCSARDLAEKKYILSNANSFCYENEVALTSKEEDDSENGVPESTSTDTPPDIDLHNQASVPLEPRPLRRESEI
T8 sequence (Q09470 whole entry): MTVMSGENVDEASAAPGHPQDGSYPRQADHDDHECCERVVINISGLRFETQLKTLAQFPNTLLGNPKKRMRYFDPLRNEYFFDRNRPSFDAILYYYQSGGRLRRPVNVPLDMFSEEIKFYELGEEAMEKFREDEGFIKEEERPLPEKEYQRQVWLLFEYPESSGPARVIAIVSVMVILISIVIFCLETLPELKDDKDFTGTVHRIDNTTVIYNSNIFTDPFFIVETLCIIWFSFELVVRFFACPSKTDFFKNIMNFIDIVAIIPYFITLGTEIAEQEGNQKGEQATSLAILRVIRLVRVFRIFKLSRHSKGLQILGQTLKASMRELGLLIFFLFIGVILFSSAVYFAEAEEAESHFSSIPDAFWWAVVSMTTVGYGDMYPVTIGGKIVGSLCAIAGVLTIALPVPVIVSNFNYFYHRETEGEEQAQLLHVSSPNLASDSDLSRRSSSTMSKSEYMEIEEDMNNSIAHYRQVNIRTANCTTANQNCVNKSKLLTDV

For “18 (GSNCAGYMRECKEKLCCSGYVCSSRWKWCVLPAPWRR) [compound 18]”, the “Activity of 5HT3a with peptide (percentage of the reference compound)” value (5HT3a) was 79%, the “Activity of 5HT3a with peptide, expressed as a percentage of the reference compound” value (5HT3a) was 95% and the “Activity of a3b4 with peptide, expressed as a percentage of the reference compound” value (α3β4; peptide at 0.2 μM) was 110%. For the same substance, the “Activity of a3b4 with peptide (percentage of the reference compound)” value (α3β4; peptide at 20 μM) was 89%, the “Activity of a4b2 with peptide, expressed as a percentage of the reference compound” value (α4β2; peptide at 0.2 μM) was 109% and the “Activity of a4b2 with peptide (percentage of the reference compound)” value (α4β2; peptide at 20 μM) was 92%. The “Activity of Cav2.1 with peptide, expressed as a percentage of the reference compound” value (Cav2.1; peptide at 0.2 μM) was 97%, the “Activity of Cav2.1 with peptide (percentage of the reference compound)” value (Cav2.1; peptide at 20 μM) was 98% and the “Activity of Cav2.2 with peptide, expressed as a percentage of the reference compound” value (Cav2.2; peptide at 0.2 μM) was 132%. The “Activity of Cav2.2 with peptide (percentage of the reference compound)” value (Cav2.2; peptide at 20 μM) was 124%, the “Activity of Kv2.1 with peptide, expressed as a percentage of the reference compound” value (Kv2.1; peptide at 0.2 μM) was 93% and the “Activity of Kv2.1 with peptide (percentage of the reference compound)” value (Kv2.1; peptide at 20 μM) was 65%. The “Activity of GABA with peptide, expressed as a percentage of the reference compound” value (GABA; peptide at 0.2 μM) was 113%, the “Activity of GABA with peptide (percentage of the reference compound)” value (GABA; peptide at 20 μM) was 106% and the “Activity of Nav1.5 with peptide, expressed as a percentage of the reference compound” value (Nav1.5; [1]) was 104%. The “Activity of Nav1.5 with peptide, expressed as a percentage of the reference compound” value (Nav1.5; [2]) was 106%, the “Activity of Nav1.5 with peptide (percentage of the reference compound)” value (Nav1.5; [1]) was 87% and the “Activity of Nav1.5 with peptide (percentage of the reference compound)” value (Nav1.5; [2]) was 112%. For the same substance, the “Activity of hERG with peptide, expressed as a percentage of the reference compound” value (hERG; peptide at 0.2 μM) was 98%, the “Activity of hERG with peptide (percentage of the reference compound)” value (hERG; peptide at 20 μM) was 62% and the “Activity of Kir2.1 with peptide, expressed as a percentage of the reference compound” value (Kir2.1; peptide at 0.2 μM) was 104%. The “Activity of Kir2.1 with peptide (percentage of the reference compound)” value (Kir2.1; peptide at 20 μM) was 93%, the “Activity of Kv1.1 with peptide, expressed as a percentage of the reference compound” value (Kv1.1; peptide at 0.2 μM) was 98% and the “Activity of Kv1.1 with peptide (percentage of the reference compound)” value (Kv1.1; peptide at 20 μM) was 78%. For the same substance, the “Activity of Kv1.2 with peptide, expressed as a percentage of the reference compound” value (Kv1.2; peptide at 0.2 μM) was 67%, the “Activity of Kv1.2 with peptide (percentage of the reference compound)” value (Kv1.2; peptide at 20 μM) was 30% and the “Activity of Kv1.3 with peptide, expressed as a percentage of the reference compound” value (Kv1.3; peptide at 0.2 μM) was 87%. The “Activity of Kv1.3 with peptide (percentage of the reference compound)” value (Kv1.3; peptide at 20 μM) was 7%, the “Activity of Nav1.7 with peptide, expressed as a percentage of the reference compound” value (Nav1.7; [3]) was 85% and the “Activity of Nav1.7 with peptide, expressed as a percentage of the reference compound” value (Nav1.7; [4]) was 84%. For the same substance, the “Activity of Nav1.7 with peptide (percentage of the reference compound)” value (Nav1.7; [3]) was 43%, the “Activity of Nav1.7 with peptide (percentage of the reference compound)” value (Nav1.7; [4]) was 55% and the “Activity of NR2A with peptide, expressed as a percentage of the reference compound” value (NR2A; peptide at 0.2 μM) was 98%. For the same substance, the “Activity of NR2A with peptide (percentage of the reference compound)” value (NR2A; peptide at 20 μM) was 79%, the “Activity of NR2B with peptide, expressed as a percentage of the reference compound” value (NR2B; peptide at 0.2 μM) was 107% and the “Activity of NR2B with peptide (percentage of the reference compound)” value (NR2B; peptide at 20 μM) was 78%. For the same substance, the “Activity of TRPA1 with peptide, expressed as a percentage of the reference compound” value (TRPA1; peptide at 0.2 μM) was 130%, the “Activity of TRPA1 with peptide (percentage of the reference compound)” value (TRPA1; peptide at 20 μM) was 89% and the “Activity of TRPV1 with peptide, expressed as a percentage of the reference compound” value (TRPV1; peptide at 0.2 μM) was 93%. The “Activity of TRPV1 with peptide (percentage of the reference compound)” value (TRPV1; peptide at 20 μM) was 61%.
